Test results published in a protein production outcome set (Wang et al. 2014).

Test: label from the status in PepcDB records
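Also: failed if final PepcDB status was selected cloned or expressed and not failed if soluble or beyond.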

Sequence	protein production
MSTDDPRFAGIARLYGIEGLARLRAAHVAIVGIGGVGSWAAEAMARSGVGEISLFDMDDVCVSNSNRQLHALDTTVGRPKVEVMAERIRAINPDCVVHAVSDFVTRDTMAECITPDMDFVIDCIDSVNAKAALISWCKRRKIQMVTTGAAGGQIDPTLIQIADLNRTFNDPLASKVRSTLRRDYGFSRTPNRHYSVPCVFSTEQLRYPKPDGSICLEKKFIGDGVKLDCAGGFGAVMMVTATFGMIAATRAVDKLVAGTRRPSERAKPAAVTANQA	failed
MKRTVALAASLSLLWLLLSGYWHDPLLLGFGLLSVGAVVALSLRMGIVDAEGVPLRQIPGLITYLPWLAWQVVLSAITVARIVLSPKLSISPTLAAIPAAPKTAIGQVILANSITLTPGTLSLDLDDGAVLVHGLCAAGIDDLMTGEMGRRVAALDGRGAP	failed
MIRVTFLPDQVSVEATAGEAWLSVAARAGVEIPTGCRMGSCGACTLELEDGQEIRACISTIAGDRDPAPLEDCPHITAYVFRDPTW	failed
MDECTVTRHYEGKGRNAGRLGAVGCKNRHGEFRIGSGFKDKDRDNPPKIGTLITYRYRGFTRKGTPKFATFVRVRTDLEHHHHHH	not failed
MTVRLTFMCATAGGTTRDAVFGDGLLSERGLRRARAAGATLPPYSLAIRAPSVRCAQTAYALGLPTTLEPALRDLDYGTWRGRTVGEVVADEPYGYSAWLTDPDAAPHGGESVRRLCRRIANWLSSVPPYPGRALVITEPSVVRASLVHALSAPVTAFRHFDVPPLSTVSLTLSDGHWIVRPGRVTPDRVGTSRAVPTPYDAAEGRTALLWGEATPA	failed
TARKCLLEKVEVITGEEAESNVLQMQCKLFVFDKTSQSWVERGRGLLRLNDMASTDDGTLQSRLVMRTQGSLRLILNTKLWAQMQIDKASEKSIHITAMDTEDQGVKVFLISASSKDTGQLYAALHHRILALRSRVE	not failed
MKITFISGQEVSLGTSFLLFSKKIVMNELNQPLLAIIKNVAKTKNLSIEEVVFCLKTALEQAYKKHLNFVNVEVNINFDKGIINVEQLFNVVSDENEDYDDFLEIPLQAANKINSSLQLGDVLRKPIPLKNISSDLINKMIAIFNQKISETNFKAVMSEFSSEVGEVIEAKVEDIDTNKEGGLKGYIINLETTKGYISKRELSKGERLEIGKKYLFVIKEIQRQASLWPITLSRSDTRLLQFLLTSNTPEIENGTIVIKKIERSPGVKSKIAVISNDPAVDPVAAILGPKGEKIRGISEEFNGEIIDIVFWNEDKLKFLINAILPAEVIGYNILQDDERDTSIEVVVPANQIANVFGFKGVNIRLISNLTGWNSVDVYSEKDASEANIKFTRLSFEPEGLFGIKKRREKIISNDATDKVFYTSKDNVIDDEIIVDLAKDLMVDNKQKQPEQVAKQVVEKSQLEKQVTPKEKEKVQPKAKVHSNSHSKKPAKPNQIFSITVDASDKNLKKDQVDNNQTNPQTKQTFDSFDDL	failed
MKIGDKVRFLSEVGGGIVTGFKGKDFVLVEDADGFDIPMPIRECVVIEADDYNIKRKPAATAPKQEEPAKPAKPEMPVIQRQPEVRGGDTLNVFLAYVPEDAKAMMTTPFEAYLVNDSNYYLYYTYLSAEGKAWNNRSHGLVEPNTKLLLEEFTKDVLNEMERVAVQLIAFKDGKPAAIKPAVSVELRIDTVKFYKLHTFSASDFFEEPALIYDIVKDDVPAKQVYVSAEEIQSALLQKKFVDKPKSQPIMKPNHGQSGKNGIIEVDLHIDSLLDDTHGMSNSEILNYQLDKFREVIEANKEKREQKVVFIHGKGDGVLRKAIIDELKRKHSNYRYQDASFQEYGFGATMVTIK	not failed
MGVLQRFERRLEGMIEGTFARAFKSELQPVEVASNVQREMDERAAIVAQGRTLVPNDFVVELSASDRERLAVYADNLGQELSKLAREYATEQGYSFVGPVRVRFETADDLQTGRFRVRSAVIRGDTVKDGEIIKPVTDHPRRGSVIPGRPRLLLSPGGAAADGSLTAQGAQQAYELTSEVTLLGRGTDCDLRLVDNGVSRHHAEIRLEGNEAILVDLNSTNGTFVNGQQVQRARLVDGSRISLGRTTMTFRRD	failed
SQGDCSYSRTALYDLLGVPSTATQAQIKAAYYRQCFLYHPDRNSGSAEAAERFTRISQAYVVLGSATLRRKYDRGLLSDEDLRGPG	not failed
MELQLAIDLLNKEEAAKLAQKVEEYVDIVEIGTPIVINEGLPAVQHLNENINNAKVLADLKIMDAADYEVSQAVKYGADIVTILGVAEDASIKAAVEEAHKHGKALLVDMIAVQNLEQRAKELDEMGADYIAVHTGYDLQAEGKSPLDSLRTVKSVIKNSKVAVAGGIKPDTIKDIVAEDPDLVIVGGGIANADDPVEAAKQCRVAIEGK	failed
MAGLVQKFKQMWTPPEDEYDYDFEEMDMDDEEVMDEISSSSYEEEEAYQEPQRESRRSSAPQSGNKVVNIHAAAQLQVVLFKPERFGDETRSVADELIKMHTVVLNLENTSKDVSRRILDFLSGVAYANNGKIKRVSTATFIITPYNVDLTGDDLMDEIESSSMYL	failed
MSDEHRFSRLRPLSLGLLAPLAVLLTGCGGPNLIERLSIGNWGFWGTVIIVLDLVALVDLLGDGTRSTTSTVVWALLIVFAPVLGVILYFIFGRE	failed
MVLEAFLVKKNEPNWLVVLRTVMPLGLSYIPIGLACGVLLHAAGFNHLLTALISVMVFSGGAQFLIASMLTINAPMTTIILMMFFLELRYALLGSSLSRYLKGQSLPFIFTFAFSMNDENYAVNYLKFATDKHWKPSQALMVEHYSLLFWTVSNIIGSLIGSALTINLQVVDFALTALFIYMAIMQTKSRLIILVAVLCGVLTIGFLVLMKSTLGLVVSTLLASLTGYFIERYLLAHKPESHLLYKVHDPTGQTAMEESDK	failed
MSLSLSHFRITRFQFARDRVIGDSQVRADDVNVAALELVSESGEVGLGFIQTLFNPLPDQQEIESVFEHEVWPSLKGNRAIALVHRVNRPRGGNQRAYSLPFHEAVQVALWDLAAKEAGLPLHVLLGSRRNRVKAYASGLDFHLDDDAFVSLFSHAASIGYSAFKIKVGHRDFDRDLRRLELLKTCVPAGSKVMIDPNEAWTSKEALTKLVAIREAGHDLLWVEDPILRHDHDGLRTLRHAVTWTQINSGEYLDLQGKRLLLEAHAADILNVHGQVTDVMRIGWLAAELGIPISIGNTFLEAGVHMAVALPEVEWLEYSFQNFDHLVEQPIEIRDGYAYAPDRPGHGLVLSEKARGEWSRPRRLARSELGAAPENPRLPAKEGHHHHHH	not failed
MSVNPFQTMRARYFLIVFALLTVVARASNELIENTFHMQNSTFINILIFYILPITWIYFAYKKHRVAFSLFINRNETFNLVQVLYITIMLCVFSYGYLILYMYSFAWITPTFIMNALREPIMDSTGGYVYQVIMVVFIAPIIGEFVFRGFLLQRFAAKWGTSIAIIVVAILFALLHVDFLGAIVFSVVLSIVYIRTNSLLMPIAIHMLNNAFVIGASFLINKEEIMSFADFSNYTTFFPGLIIFITGLNLVLIFLFVNRKYWSKEMPAIYVEQEKSFSDVVGSK	failed
MGGHPQLRLVKALLLLGLNPVSASLQDQHCESLSLASNISGLQCNASVDLIGTCWPRSPAGQLVVRPCPAFFYGVRYNTTNNGYRECLANGSWAARVNYSECQEILNEEKKSKVHYHVAVIINYLGHCISLVALLVAFVLFLRLRPGCTHWGDQADGALEVGAPWSGAPFQVRRSIRCLRNIIHWNLISAFILRNATWFVVQLTMSPEVHQSNVGWCRLVTAAYNYFHVTNFFWMFGEGCYLHTAIVLTYSTDRLRKWMFICIGWGVPFPIIVAWAIGKLYYDNEKCWFGKRPGVYTDYIYQGPMILVLLINFIFLFNIVRILMTKLRASTTSETIQYRKAVKATLVLLPLLGITYMLFFVNPGEDEVSRVVFIYFNSFLESFQGFFVSVFYCFLNSEVRSAIRKRWHRWQDKHSIRARVARAMSIPTSPTRVSFHSIKQSTAV	failed
MRRLLVALCLLTVVLGSTSALAQARNQLGPLCTTETTPADKMVDACTKIIALKVFKGEQLATVYFWRAVGWNKKGDYAKVITDATEAIRLQPSQAVYNLRGSAYYDKGDYDIAIADFDDALKLGPPSGIIFHNRGNAWRGKHDYTKAIADYDMSIKADPKSAFSFQNRGISKEALGDLDGALADINQAIRLDPTLPQPLINRTSIWRAKGDLDRAIADGSEAIRLAEKKPPANIMTPPNSVLISGYTHRALAYEAKGDYARARDDYKATLAIVASDAGSKANQATAKVRLSLVSDAAVPIPRDAPSPTTQPTAAPAPQQTGAASAPSPAPAVRGTRMALIIGNGAYAHVKALPNPPNDARAVAKSLRDIGFTVSEGVDLDRAAMQKMTRDFLRDAARAQVAVVYYAGHGVQVDGRNYLIPVDVELKPGTAMTEAMIDMDTIMAGLDDQVRTNILIFDACRNNPMAQQVASAAANRGIEGASGLAAPTSLGAGATLGAGTLIAFATAPGQVALDGDGANSPFSAALSRHIGTLGLEVQQMLTRVRAEVVSTTKNKQVPWSNSSLLGEVYLAEK	failed
MAEKISVKTADTNADEIDLGRLLGTLLDNRWLIIGVTAIFLIFGILYATLATPIYKADALVQVEKNSSNKLINDITSMLPDAKPESAAEVELITSRMIIGKTVNDLALDINVQQNYFPFFGKGIARLTGATKGVLAVSRLEVPDSWKDEPIILTVTDNKNYSISAGDAVRFEGQVGRLERHDGMTLLISDIAADEGTTFSIKKLNQLTAINNILKTLTVADRGKDTGVLALSLEGEDPILTNKILNSISENYLQQNVERKSEESGRSLEFLKEQLPNVRSILDEADNKLNIFRQKNESVDLSLEAKSVLETMVALEAQLNELTFKEAEISKLYTKEHPAYRALLEKRKTLEEEKEKINKRVGAMPKTQQEIIRLTRDVKAGQEVYMQLLNKQQELSINKASTVGNVRIIDSAVVQLRPVKPEKVFIVLLSIILGGLLSVSFVLIRTILHKGIESPEQLAELGISVYASVPLSAWQQKKDRALLGKGKRGNTRSTELLAVGNPADLAIEAIRSLRTSLHFAMMEAKNNVLMISGASPAIGKTFVSANLGAVIAQSGQRVLIVDCDMRKGYAHELMGCQGTDGLSDILSGQITTDKSIRKTAVENMDFIPRGQIPPNPSELLMHSRFSQFIDWATKNYDIVLLDTPPILAVTDAAVISRHAGTSLLVARFEVNTLKEIEVSIRRFEQNGTEIKGVILNAIVKRAASYYSYGNYDYYSYEYKSDK	failed
EEKVVAEQQADGTWLMDGWISIRKASNLLEHDLVDEAERYSTLGGYLLWQFGYIPAAGEQITVDGLIFEIVSVNKHNIGKVRVHRTQ	not failed
MLHTEKVEYVNQAHEDITGIARDKSIGTNLRDLTFFRQHNALAEQTLAKIFRGDQAKGEVQFSRTDGSRYWLKYIVSQFITDRGNHYALVSGEENSDEHLEHHHHHH	failed
MTQSLFDFSAYFKFFIGLFALVNPVGIIPVFISMTSYQPAAVRNKTNLTANLSVAIILLTSLFLGDGILQIFGISIDSFRIAGGILVVTIAMSMISGKLGEDKQNKQEKSETAVRESIGVVPLALPLMAGPGAISSTIVWGTRYHSWVHLVGFSLAIAVFALCCWGIFRMAPWLVRLLGQTGINVITRIMGLLLMALGIEFIVTGIKALFPGLLS	failed
MVVANDLSSKILPRVLIVSRRTLRKNKYVDFVGEYHLDLIVSSGAVPVIVPRVNGIHSMLQSFEPIHGVLLCEGEDVDPSLYADDELSDLSPEDMEEIKKAHAEDMTIDREKDSIELTLARLCLERNIPFLGICRGSQILNVAAGGTLYQDIDKELGTTMTTTNHIDYDNYDGHRHEARIVEETPLHKLFEEMEIMVNSYHHQGVKRLAQRFVPMAYAPDGLIEGFYDPNRYDPKEGQFLMGLQFHPERMRLPGSDEFDYPGCALVYQEFVKAVIAFQKKQVNATQVEMKRKTTTLVKSFSQAEFLEVRDSFVLHTYRLYVLPLNIGFSDMAE	failed
